The supplement of paper PMC6757056
± gives the standard deviation of the averaged measurements.

B1: library; a variant is named by its letters at N, in order (parent)
chain: GCUGUCACCGGUGUAUUACCCUAGUGGUCGACCGGUCUGAUGAGUCUNNNNNNAGACGAAACAGC

How the values were obtained:
[1] = variants of: B1; assay: FACS-Seq fitted mean relative fluorescence mCherry/BFP without ligand (log10 relative fluorescence); ligand: hypoxanthine (xanthine aptamer); higher = higher reporter protein expression; details: HEK293T, ligand present: no
Description: (§1)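 Hammerhead (sTRSV) ribozyme switch libraries with a ligand aptamer grafted on stem I and a randomized N4-6 loop II, cloned into the 3' UTR of mCherry and transiently transfected into HEK293T cells; RNA-Seq 72 h post transfection with ligand added 1 h before transfection; RNA read count / plasmid DNA read count normalized to the non-cleaving sTRSVctl (x100), log10; sequences with >100 DNA reads. FACS-Seq: lentiviral library sorted into 6 bins after 48 h ligand, log-normal fit mean of mCherry/BFP scaled to controls. Printed sequences are partial switch sequences.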

[2] = variants of: B1; assay: normalized RNA/DNA level with ligand (relative to sTRSVctl = 100) (log10 (% of sTRSVctl)); ligand: hypoxanthine (xanthine aptamer); higher = less ribozyme self-cleavage, higher mRNA level; details: ligand concentration (+) RNA-Seq: 5 mM, HEK293T, reporter: mCherry (pCS4076), ligand present: yes
Description: as §1

[3] = variants of: B1; assay: normalized RNA/DNA level without ligand (relative to sTRSVctl = 100) (log10 (% of sTRSVctl)); ligand: hypoxanthine (xanthine aptamer); higher = less ribozyme self-cleavage, higher mRNA level; details: HEK293T, reporter: mCherry (pCS4076), ligand present: no
Description: as §1

[4] = variants of: B1; assay: FACS-Seq fitted mean relative fluorescence mCherry/BFP with ligand (log10 relative fluorescence); ligand: hypoxanthine (xanthine aptamer); ligand concentration (+) FACS-Seq: 5 mM; higher = higher reporter protein expression; details: HEK293T, ligand present: yes
Description: as §1

Row | Variant | FACS-Seq fitted mean (log10) [1] | normalized RNA/DNA level with ligand (log10) [2] | normalized RNA/DNA level without ligand (log10) [3] | FACS-Seq fitted mean (log10) [4]
1 | AAACGG | 0.034 ± 0.0048 | 1.73 ± 0.061 | 1.23 ± 0.082 | 0.486 ± 0.027
2 | AAACGA | 0.38 ± 0.042 | 1.908 ± 0.0036 | 1.63 ± 0.046 | 0.5899 ± 0.0039
3 | GAACCG | 0.156 ± 0.11 | 1.9 ± 0.08 | 1.48 ± 0.052 | 0.296 ± 0.017
4 | GAACCA | 0.493 ± 0.094 | 1.948 ± 0.018 | 1.816 ± 0.014 | 0.365 ± 0.0063
5 | GAAAGU | 0.233 ± 0.011 | 1.91 ± 0.022 | 1.752 ± 0.0063 | 0.17 ± 0.018
6 | GAAAGA | 0.507 ± 0.093 | 1.92 ± 0.029 | 1.71 ± 0.033 | 0.581 ± 0.065
7 | GAAAGG | 0.141 ± 0.013 | 1.74 ± 0.029 | 1.2 ± 0.07 | 0.614 ± 0.017
8 | GAAAGC | 0.368 ± 0.056 | 1.86 ± 0.028 | 1.39 ± 0.084 | 0.776 ± 0.043
9 | CAACGA | 0.153 ± 0.16 | 1.951 ± 0.011 | 1.79 ± 0.036 | 0.353 ± 0.055
10 | CAACGC | 0.362 ± 0.014 | 1.92 ± 0.073 | 1.87 ± 0.019 | 0.326 ± 0.019
11 | CAAAGU | 0.529 ± 0.021 | 1.89 ± 0.0058 | 1.82 ± 0.033 | 0.571 ± 0.0084
12 | CAAACC | 0.631 ± 0.0022 | 1.96 ± 0.046 | 1.867 ± 0.0027 | 0.622 ± 0.027
13 | AAAAGA | 0.199 ± 0.0066 | 1.91 ± 0.053 | 1.67 ± 0.025 | 0.556 ± 0.061
14 | AAAAGU | 0.21 ± 0.0047 | 1.854 ± 0.011 | 1.55 ± 0.032 | 0.339 ± 0.09
15 | AAAAGG | 0.163 ± 0.004 | 1.78 ± 0.06 | 1.26 ± 0.027 | 0.725 ± 0.056
16 | UAACGC | 0.329 ± 0.043 | 1.92 ± 0.058 | 1.74 ± 0.031 | 0.365 ± 0.011
17 | UAACGA | 0.432 ± 0.054 | 1.91 ± 0.033 | 1.6909 ± 0.0004 | 0.324 ± 0.072
18 | AAAAUU | 0.401 ± 0.01 | 1.93 ± 0.04 | 1.86 ± 0.041 | 0.491 ± 0.064

Row | Variant | FACS-Seq fitted mean (log10) [1] | normalized RNA/DNA level with ligand (log10) [2] | normalized RNA/DNA level without ligand (log10) [3] | FACS-Seq fitted mean (log10) [4]
19 | AAAAUG | 0.362 ± 0.024 | 1.857 ± 0.017 | 1.51 ± 0.044 | 0.671 ± 0.053
20 | GAAAAG | 0.326 ± 0.035 | 1.83 ± 0.0058 | 1.47 ± 0.038 | 0.473 ± 0.036
21 | GAAAAC | 0.271 ± 0.058 | 1.87 ± 0.053 | 1.7 ± 0.033 | 0.271 ± 0.06
22 | GAAAAA | 0.653 ± 0.036 | 1.91 ± 0.027 | 1.8 ± 0.041 | 0.629 ± 0.093
23 | GAAAAU | 0.558 ± 0.04 | 1.92 ± 0.034 | 1.8 ± 0.02 | 0.532 ± 0.074
24 | GAAAUA | 0.105 ± 0.023 | 1.92 ± 0.055 | 1.85 ± 0.028 | 0.082 ± 0.037
25 | GAAAUG | 0.0921 ± 0.028 | 1.86 ± 0.075 | 1.44 ± 0.035 | 0.497 ± 0.047
26 | UAAAGG | 0.355 ± 0.035 | 1.84 ± 0.023 | 1.45 ± 0.05 | 0.675 ± 0.094
27 | UAAAGU | 0.334 ± 0.017 | 1.89 ± 0.05 | 1.54 ± 0.076 | 0.708 ± 0.063
28 | UAAAGC | 0.687 ± 0.044 | 1.92 ± 0.024 | 1.799 ± 0.0067 | 0.694 ± 0.029
29 | CAACAC | 0.465 ± 0.089 | 1.895 ± 0.0089 | 1.69 ± 0.047 | 0.206 ± 0.043
30 | CAACAU | 0.722 ± 0.052 | 1.87 ± 0.032 | 1.75 ± 0.035 | 0.672 ± 0.078
31 | UAACCG | 0.631 ± 0.023 | 1.95 ± 0.04 | 1.68 ± 0.033 | 0.756 ± 0.013
32 | UAACCC | 0.667 ± 0.078 | 1.94 ± 0.08 | 1.856 ± 0.0018 | 0.767 ± 0.065
33 | AAACCA | 0.0882 ± 0.014 | 1.924 ± 0.014 | 1.81 ± 0.016 | 0.122 ± 0.038
34 | AAACCC | 0.474 ± 0.095 | 1.95 ± 0.022 | 1.833 ± 0.0068 | 0.431 ± 0.021
35 | AAACCU | 0.484 ± 0.082 | 1.94 ± 0.033 | 1.87 ± 0.02 | 0.2749 ± 0.00055
36 | AAACCG | 0.278 ± 0.022 | 1.8 ± 0.029 | 1.37 ± 0.029 | 0.73 ± 0.045
